Publication PMC4691852 (Molecular cell, 2013)
Where two headings read alike, the source gives them in different places.

B1: Bacillus subtilis MazE (antitoxin) coexpressed with MazF from modified pRSFDuet-1 (natural protein)
chain: MSESSARTEMKISLPENLVAELDGVAMREKRSRNELISQAVRAYVSERTTRHNRDLMRRGYMEMAKINLNISSEAHFAECEAETTVERLVSGG
modifications: selenomethionine-labelled (for the crystals)
B2: Bacillus subtilis MazF (toxin, mRNA interferase), expressed alone from pET-SUMO (enzyme)
chain: MIVKRGDVYFADLSPVVGSEQGGVRPVLVIQNDIGNRFSPTAIVAAITAQIQKAKLPTHVEIDAKRYGFERDSVILLEQIRTIDKQRLTDKITHLDDEMMDKVDEALQISLALIDF
B3: Bacillus subtilis MazF coexpressed with MazE from modified pRSFDuet-1 (enzyme)
chain: B2 chain
modifications: selenomethionine-labelled (for the crystals)

Experiments:
crystal structure [1] = target: the molecule itself; test: crystal structure
crystal structure [2] = target: the molecule itself; test: crystal structure; remark: listed apart in the source
MazF = target: T1, MazF (Bacillus subtilis, UniProt P96622 1-116); test: ITC
T1 sequence: B2 chain

Binder	stoichiometry N (crystal structure [1])	other results
B1	2	
B2		stoichiometry N (crystal structure [2]): 2
B3	2	
UUUACAUAA (ssRNA, 2'-deoxyuridine at position 3 (other residues ribo)) [uncleavable 9-mer RNA UUdUACAUAA]		Kd (MazF): 64 nM
